Experimental data reported in the supplement of paper PMC11780869.

Test system: Bacillus subtilis
Experiment: cleaved RNA product abundance (RNA/gDNA barcode ratio) relative to median wild-type variant (ratio to wild type); higher = more accumulation of the downstream cleavage product
Conditions: experiment (reporter, strain, medium): exp 8a: truncated aprE reporter, strain BJT201 with 2% xylose (RNase J1 expressed); cleavage site: glnRA (positions -5 to +31 mutated)
In short: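 Reporter mRNAs based on truncated aprE or tetM carried barcoded, mutagenized RNase Y cleavage-site windows built from oligos with a 9% error rate and were integrated into the B. subtilis chromosome. Cultures grew in LB at 37°C from OD600 0.0003 to 0.3. Cleaved RNA was gel-selected, reverse transcribed and barcode-sequenced together with genomic DNA barcodes, and UMIs were collapsed. Cleaved product abundance is the per-construct ratio of RNA to gDNA barcodes, scaled to the median of constructs carrying the unmutated site.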

Sequence: CGACATGTCCCGCTTCTTTCATTAATCCGTTAGCAACTGTTTTGCTATATACATTTACATTTTAAGAGGAGGAAT
- cleaved RNA product abundance: 1.39

Sequence: CGACATGTCCCGCTTCTTTCATTAATCCGTTAGCAACTGTTTTGCTATATACATTTACCATTTAAGAGGAGGAAT
- cleaved RNA product abundance: 1.03

Sequence: CGACATGTCCCGCTTCTTTCATTAATCCGTTAGCAACTGTTTTGCTATATACATTTACCCTTTAAGAGGAGGAAT
- cleaved RNA product abundance: 0.763

Sequence: CGACATGTCCCGCTTCTTTCATTAATCCGTTAGCAACTGTTTTGCTATATACATTTACCCTTTTAAGAGGAGGAA
- cleaved RNA product abundance: 0.756

Sequence: CGACATGTCCCGCTTCTTTCATTAATCCGTTAGCAACTGTTTTGCTATATACATTTACCGTTTAAGAGGAGGAAT
- cleaved RNA product abundance: 0.948

Sequence: CGACATGTCCCGCTTCTTTCATTAATCCGTTAGCAACTGTTTTGCTATATACATTTACGTTTTAAGAGGAGGAAT
- cleaved RNA product abundance: 1.12

Sequence: CGACATGTCCCGCTTCTTTCATTAATCCGTTAGCAACTGTTTTGCTATATACATTTACTTTTTAAGAGGAGGAAT
- cleaved RNA product abundance: 1.23

Sequence: CGACATGTCCCGCTTCTTTCATTAATCCGTTAGCAACTGTTTTGCTATATACATTTAGCATTTAAGAGGAGGAAT
- cleaved RNA product abundance: 0.755

Sequence: CGACATGTCCCGCTTCTTTCATTAATCCGTTAGCAACTGTTTTGCTATATACATTTAGCTTTTAAGAGGAGGAAT
- cleaved RNA product abundance: 1.07

Sequence: CGACATGTCCCGCTTCTTTCATTAATCCGTTAGCAACTGTTTTGCTATATACATTTAGGTTTTAAGAGGAGGAAT
- cleaved RNA product abundance: 0.86

Sequence: CGACATGTCCCGCTTCTTTCATTAATCCGTTAGCAACTGTTTTGCTATATACATTTATCGTTTAAGAGGAGGAAT
- cleaved RNA product abundance: 0.92

Sequence: CGACATGTCCCGCTTCTTTCATTAATCCGTTAGCAACTGTTTTGCTATATACATTTATCTTTTAAGAGGAGGAAT
- cleaved RNA product abundance: 1.27

Sequence: CGACATGTCCCGCTTCTTTCATTAATCCGTTAGCAACTGTTTTGCTATATACATTTATGTTTTAAGAGGAGGAAT
- cleaved RNA product abundance: 0.888

Sequence: CGACATGTCCCGCTTCTTTCATTAATCCGTTAGCAACTGTTTTGCTATATACATTTATTTTTTAAGAGGAGGAAT
- cleaved RNA product abundance: 2.39

Sequence: CGACATGTCCCGCTTCTTTCATTAATCCGTTAGCAACTGTTTTGCTATATACATTTCCCATTTAAGAGGAGGAAT
- cleaved RNA product abundance: 1.11

Sequence: CGACATGTCCCGCTTCTTTCATTAATCCGTTAGCAACTGTTTTGCTATATACATTTCCCTTTTAAGAGGAGGAAT
- cleaved RNA product abundance: 0.531

Sequence: CGACATGTCCCGCTTCTTTCATTAATCCGTTAGCAACTGTTTTGCTATATACATTTCCTTTTTAAGAGGAGGAAT
- cleaved RNA product abundance: 0.345

Sequence: CGACATGTCCCGCTTCTTTCATTAATCCGTTAGCAACTGTTTTGCTATATACATTTGCCTTTTAAGAGGAGGAAT
- cleaved RNA product abundance: 0.413

Sequence: CGACATGTCCCGCTTCTTTCATTAATCCGTTAGCAACTGTTTTGCTATATACATTTTCCTTTTAAGAGGAGGAAT
- cleaved RNA product abundance: 0.416

Sequence: CGACATGTCCCGCTTCTTTCATTAATCCGTTAGCAACTGTTTTGCTATATACATTTTCTTTTTAAGAGGAGGAAT
- cleaved RNA product abundance: 0.842

Sequence: CGACATGTCCCGCTTCTTTCATTAATCCGTTAGCAACTGTTTTGCTATATACATTTTTCTTTTAAGAGGAGGAAT
- cleaved RNA product abundance: 0.479

Sequence: CGACATGTCCCGCTTCTTTCATTAATCCGTTAGCAACTGTTTTGCTATATACCTTAACCTTTTAAGAGGAGGAAT
- cleaved RNA product abundance: 0.281

Sequence: CGACATGTCCCGCTTCTTTCATTAATCCGTTAGCAACTGTTTTGCTATATACCTTCACCTTTTAAGAGGAGGAAT
- cleaved RNA product abundance: 0.276

Sequence: CGACATGTCCCGCTTCTTTCATTAATCCGTTAGCAACTGTTTTGCTATATACCTTTACCTTTTAAGAGGAGGAAT
- cleaved RNA product abundance: 0.283

Sequence: CGACATGTCCCGCTTCTTTCATTAATCCGTTAGCAACTGTTTTGCTATATACGTTTACCTTTTAAGAGGAGGAAT
- cleaved RNA product abundance: 0.361

Sequence: CGACATGTCCCGCTTCTTTCATTAATCCGTTAGCAACTGTTTTGCTATATACTTATACCTTTTAAGAGGAGGAAT
- cleaved RNA product abundance: 0.926

Sequence: CGACATGTCCCGCTTCTTTCATTAATCCGTTAGCAACTGTTTTGCTATATACTTTTACCATTTAAGAGGAGGAAT
- cleaved RNA product abundance: 0.769
